The supplement of paper PMC10065799, “High-throughput profiling of sequence recognition by tyrosine kinases and SH2 domains using bacterial peptide display” (eLife, 2023)

What was measured:
Hck = Hck (UniProt P08631); assay: phosphorylation enrichment, bacterial display (enrichment ratio); higher = better substrate or ligand; peptides without Tyr show the background
EPHB2 = EPHB2 (UniProt P29323); assay: as above
Fer (mouse) = assay: as above
Fyn = Fyn (UniProt P06241); assay: as above
EPHB1 = EPHB1 (UniProt P54762); assay: as above
Fes = Fes (UniProt P07332); assay: as above
AncSZ = assay: as above
FGFR1 = FGFR1 (UniProt P11362); assay: as above
c-Abl (mouse) = assay: as above
FGFR3 = FGFR3 (UniProt P22607); assay: as above
Jak2 = Jak2 (UniProt O60674); assay: as above
c-Src = assay: as above
MERTK = MERTK (UniProt Q12866); assay: as above
c-Src SH2 = assay: SH2 binding enrichment of the phosphorylated peptide, bacterial display (enrichment ratio); higher = better substrate or ligand; peptides without Tyr show the background
SHP2-C SH2 = assay: as above
Grb2 SH2 = Grb2 SH2 (UniProt P62993); assay: as above
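For SH2 binding enrichment of the phosphorylated peptide, bacterial display in this document: peptide library displayed on the E. coli surface as eCPX fusions, selected cells deep-sequenced, score is each peptide's frequency after selection divided by its frequency in the input.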
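For phosphorylation enrichment, bacterial display in this document: 11-residue human phosphosite peptides and single-mutation variants displayed on the E. coli surface, counted by deep sequencing, each peptide's frequency after selection divided by its frequency in the unselected input library; frequency after pTyr selection over input frequency; kinase dosed for 20-30% of maximal phosphorylation in three min.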

Chain of FGFR3 (P22607 whole entry, looked up): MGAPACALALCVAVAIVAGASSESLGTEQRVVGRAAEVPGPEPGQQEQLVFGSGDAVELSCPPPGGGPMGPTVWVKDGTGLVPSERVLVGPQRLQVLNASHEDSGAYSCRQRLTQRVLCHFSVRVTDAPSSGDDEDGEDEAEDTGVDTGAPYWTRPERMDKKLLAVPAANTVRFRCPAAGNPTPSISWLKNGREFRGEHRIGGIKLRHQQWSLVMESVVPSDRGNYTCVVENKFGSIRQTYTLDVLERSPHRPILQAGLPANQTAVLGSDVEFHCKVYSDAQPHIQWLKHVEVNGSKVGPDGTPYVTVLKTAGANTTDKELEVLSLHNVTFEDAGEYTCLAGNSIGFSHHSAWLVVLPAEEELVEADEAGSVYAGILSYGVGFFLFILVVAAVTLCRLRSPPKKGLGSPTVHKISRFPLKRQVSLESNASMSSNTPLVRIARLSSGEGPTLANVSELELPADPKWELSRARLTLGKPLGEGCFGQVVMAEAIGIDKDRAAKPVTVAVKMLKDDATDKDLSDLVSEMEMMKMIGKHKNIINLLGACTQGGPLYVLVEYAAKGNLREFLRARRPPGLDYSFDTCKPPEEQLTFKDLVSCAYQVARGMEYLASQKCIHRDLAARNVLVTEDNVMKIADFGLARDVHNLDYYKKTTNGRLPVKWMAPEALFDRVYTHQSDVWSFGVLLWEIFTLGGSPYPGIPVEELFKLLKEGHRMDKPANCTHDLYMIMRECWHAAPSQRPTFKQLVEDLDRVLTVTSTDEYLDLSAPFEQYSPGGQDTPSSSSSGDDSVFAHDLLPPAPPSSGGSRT
Chain of Fyn (P06241 whole entry, looked up): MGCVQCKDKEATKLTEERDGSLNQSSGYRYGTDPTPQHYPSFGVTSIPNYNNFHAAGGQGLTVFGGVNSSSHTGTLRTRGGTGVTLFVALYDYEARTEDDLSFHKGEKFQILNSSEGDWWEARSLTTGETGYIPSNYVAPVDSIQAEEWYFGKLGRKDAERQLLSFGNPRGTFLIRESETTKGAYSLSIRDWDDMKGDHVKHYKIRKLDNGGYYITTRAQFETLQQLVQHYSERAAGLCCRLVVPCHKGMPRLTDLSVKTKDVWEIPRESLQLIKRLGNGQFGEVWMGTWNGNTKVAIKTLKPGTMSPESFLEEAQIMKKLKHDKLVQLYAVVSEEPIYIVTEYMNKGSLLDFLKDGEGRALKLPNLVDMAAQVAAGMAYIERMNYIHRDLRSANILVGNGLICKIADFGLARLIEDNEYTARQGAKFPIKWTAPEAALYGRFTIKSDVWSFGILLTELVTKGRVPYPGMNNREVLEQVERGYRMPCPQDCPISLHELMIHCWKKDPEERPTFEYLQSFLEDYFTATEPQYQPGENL
Chain of Hck (P08631 whole entry, looked up): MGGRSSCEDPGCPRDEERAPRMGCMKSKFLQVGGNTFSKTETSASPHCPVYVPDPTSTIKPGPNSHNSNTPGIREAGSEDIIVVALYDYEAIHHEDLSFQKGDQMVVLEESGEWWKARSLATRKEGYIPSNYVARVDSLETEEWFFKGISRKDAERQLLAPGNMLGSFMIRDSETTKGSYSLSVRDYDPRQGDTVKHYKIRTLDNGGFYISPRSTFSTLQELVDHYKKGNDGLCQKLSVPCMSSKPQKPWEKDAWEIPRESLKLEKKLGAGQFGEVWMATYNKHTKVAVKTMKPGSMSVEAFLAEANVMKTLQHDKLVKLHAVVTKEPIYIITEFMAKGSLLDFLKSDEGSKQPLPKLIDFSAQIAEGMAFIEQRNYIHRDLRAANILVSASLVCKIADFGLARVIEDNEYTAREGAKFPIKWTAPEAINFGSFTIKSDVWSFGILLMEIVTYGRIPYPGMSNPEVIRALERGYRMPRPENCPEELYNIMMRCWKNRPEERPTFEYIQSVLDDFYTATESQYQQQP
Chain of Fes (P07332 whole entry, looked up): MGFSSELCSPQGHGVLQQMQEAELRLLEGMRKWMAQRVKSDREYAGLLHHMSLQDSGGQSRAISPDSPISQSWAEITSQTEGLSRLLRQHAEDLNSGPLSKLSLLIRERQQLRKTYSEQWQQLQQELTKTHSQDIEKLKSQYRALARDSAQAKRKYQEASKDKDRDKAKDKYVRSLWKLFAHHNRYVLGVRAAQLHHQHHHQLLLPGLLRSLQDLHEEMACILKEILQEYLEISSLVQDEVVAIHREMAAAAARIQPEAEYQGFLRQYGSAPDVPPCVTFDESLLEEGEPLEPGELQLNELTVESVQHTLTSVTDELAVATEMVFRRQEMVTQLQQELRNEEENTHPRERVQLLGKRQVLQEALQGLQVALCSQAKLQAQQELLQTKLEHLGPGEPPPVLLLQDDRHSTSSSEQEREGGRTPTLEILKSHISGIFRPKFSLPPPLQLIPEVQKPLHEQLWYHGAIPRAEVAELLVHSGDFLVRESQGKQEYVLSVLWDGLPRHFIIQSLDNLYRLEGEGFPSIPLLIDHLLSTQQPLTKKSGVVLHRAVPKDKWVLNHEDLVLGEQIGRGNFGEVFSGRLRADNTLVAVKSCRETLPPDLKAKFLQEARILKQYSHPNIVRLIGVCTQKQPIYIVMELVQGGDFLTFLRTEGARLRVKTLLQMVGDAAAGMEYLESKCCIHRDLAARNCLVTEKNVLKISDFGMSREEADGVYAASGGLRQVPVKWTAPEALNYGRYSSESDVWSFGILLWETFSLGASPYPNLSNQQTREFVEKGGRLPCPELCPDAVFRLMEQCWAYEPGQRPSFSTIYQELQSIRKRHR
Chain of EPHB2 (P29323 whole entry, looked up): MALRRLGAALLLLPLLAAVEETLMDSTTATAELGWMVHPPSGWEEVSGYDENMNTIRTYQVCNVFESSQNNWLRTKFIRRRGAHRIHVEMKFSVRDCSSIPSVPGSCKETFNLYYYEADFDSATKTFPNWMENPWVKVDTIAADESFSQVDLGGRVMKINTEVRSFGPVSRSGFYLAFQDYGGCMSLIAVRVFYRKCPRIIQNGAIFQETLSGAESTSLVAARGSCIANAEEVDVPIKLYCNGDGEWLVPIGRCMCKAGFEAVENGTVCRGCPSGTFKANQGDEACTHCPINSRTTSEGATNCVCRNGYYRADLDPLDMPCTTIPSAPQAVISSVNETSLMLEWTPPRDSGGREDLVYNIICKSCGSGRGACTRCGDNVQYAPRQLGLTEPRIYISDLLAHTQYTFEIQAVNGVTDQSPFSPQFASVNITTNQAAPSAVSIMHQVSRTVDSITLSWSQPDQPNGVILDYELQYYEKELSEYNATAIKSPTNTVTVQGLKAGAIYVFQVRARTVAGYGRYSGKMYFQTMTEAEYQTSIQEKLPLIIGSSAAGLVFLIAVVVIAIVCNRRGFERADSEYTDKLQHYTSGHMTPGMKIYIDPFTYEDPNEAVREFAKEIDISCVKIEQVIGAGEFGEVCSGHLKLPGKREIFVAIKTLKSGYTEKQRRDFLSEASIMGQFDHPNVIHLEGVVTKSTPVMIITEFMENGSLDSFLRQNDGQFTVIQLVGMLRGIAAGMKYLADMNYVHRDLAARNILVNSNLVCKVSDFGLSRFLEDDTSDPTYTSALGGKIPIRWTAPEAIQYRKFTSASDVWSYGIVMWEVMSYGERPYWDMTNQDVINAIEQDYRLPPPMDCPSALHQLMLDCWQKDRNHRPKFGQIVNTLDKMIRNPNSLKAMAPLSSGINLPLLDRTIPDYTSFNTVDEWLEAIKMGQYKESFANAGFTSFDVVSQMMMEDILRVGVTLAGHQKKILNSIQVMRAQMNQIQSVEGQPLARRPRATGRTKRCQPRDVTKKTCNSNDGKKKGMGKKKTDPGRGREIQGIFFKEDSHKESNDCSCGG
Chain of FGFR1 (P11362 whole entry, looked up): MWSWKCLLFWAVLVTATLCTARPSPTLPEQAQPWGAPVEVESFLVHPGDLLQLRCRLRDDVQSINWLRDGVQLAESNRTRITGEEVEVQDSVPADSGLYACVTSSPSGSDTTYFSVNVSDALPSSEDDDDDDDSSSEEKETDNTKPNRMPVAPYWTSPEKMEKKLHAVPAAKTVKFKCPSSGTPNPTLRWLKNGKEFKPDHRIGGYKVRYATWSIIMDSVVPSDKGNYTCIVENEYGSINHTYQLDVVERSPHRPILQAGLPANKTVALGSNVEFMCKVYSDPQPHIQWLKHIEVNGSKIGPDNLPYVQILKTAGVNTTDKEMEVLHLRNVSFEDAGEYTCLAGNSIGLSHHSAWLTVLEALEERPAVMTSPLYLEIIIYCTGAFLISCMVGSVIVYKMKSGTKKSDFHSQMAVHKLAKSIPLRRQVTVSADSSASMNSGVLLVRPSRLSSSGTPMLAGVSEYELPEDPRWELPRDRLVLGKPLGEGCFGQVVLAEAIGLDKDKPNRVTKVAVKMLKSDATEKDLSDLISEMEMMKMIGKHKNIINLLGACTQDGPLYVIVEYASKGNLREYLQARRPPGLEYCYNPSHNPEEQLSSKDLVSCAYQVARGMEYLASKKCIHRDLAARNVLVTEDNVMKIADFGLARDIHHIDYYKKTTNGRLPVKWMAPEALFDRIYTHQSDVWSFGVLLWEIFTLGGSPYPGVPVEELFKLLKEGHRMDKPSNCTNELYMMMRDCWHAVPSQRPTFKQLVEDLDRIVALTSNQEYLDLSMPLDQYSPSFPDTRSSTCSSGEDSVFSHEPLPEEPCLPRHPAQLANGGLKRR
Chain of Grb2 SH2 (P62993 whole entry, looked up, the tested form may be a part): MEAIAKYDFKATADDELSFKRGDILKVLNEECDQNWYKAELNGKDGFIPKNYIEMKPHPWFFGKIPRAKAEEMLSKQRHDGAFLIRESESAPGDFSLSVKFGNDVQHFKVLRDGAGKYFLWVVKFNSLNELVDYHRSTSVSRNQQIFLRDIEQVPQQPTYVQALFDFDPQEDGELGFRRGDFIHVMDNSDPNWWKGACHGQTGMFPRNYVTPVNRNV

Row | Sequence | phosphorylation enrichment (Hck) | phosphorylation enrichment (EPHB2) | phosphorylation enrichment (Fer (mouse)) | phosphorylation enrichment (Fyn) | phosphorylation enrichment (EPHB1) | phosphorylation enrichment (Fes) | phosphorylation enrichment (AncSZ) | phosphorylation enrichment (FGFR1) | phosphorylation enrichment (c-Abl (mouse)) | phosphorylation enrichment (FGFR3) | phosphorylation enrichment (Jak2) | phosphorylation enrichment (c-Src) | phosphorylation enrichment (MERTK) | SH2 binding enrichment (c-Src SH2) | SH2 binding enrichment (SHP2-C SH2) | SH2 binding enrichment (Grb2 SH2)
1 | CTLSVYRQLHN [LUZP1_Y1036] | 0.456 | 0.631 | 0.536 | 0.466 | 0.622 | 1.29 | 1.1 | 0.513 | 0.771 | 0.823 | 1.07 | 0.412 | 0.435 | 0.464 | 0.608 | 0.655
2 | CTTIHYDYMCN [TP53_Y234_N235D] | 0.635 | 0.723 | 1.17 | 0.657 | 0.644 | 0.994 | 1.31 | 0.687 | 0.708 | 0.631 | 1.03 | 0.675 | 0.591 | 8.99 | 1.48 | 0.983
3 | CTTIHYIFMCN [TP53_Y234_N235I_YF] | 0.331 | 0.554 | 0.436 | 0.418 | 0.511 | 1.05 | 0.946 | 0.416 | 0.695 | 0.657 | 0.918 | 0.324 | 0.327 | 0.858 | 1.1 | 1.19
4 | CTTIHYNFICN [TP53_Y234_M237I_YF] | 0.454 | 0.59 | 0.672 | 0.464 | 0.554 | 1.23 | 0.895 | 0.554 | 0.787 | 0.775 | 1.25 | 0.595 | 0.439 | 2.34 | 2.05 | 2
5 | CTTIHYNFMRN [TP53_Y234_C238R_YF] | 0.577 | 0.626 | 0.571 | 0.568 | 0.605 | 1.07 | 1.03 | 0.567 | 0.767 | 0.993 | 0.889 | 0.449 | 0.489 | 0.773 | 0.896 | 0.949
6 | CTTIHYNYMSN [TP53_Y234_C238S] | 0.434 | 0.594 | 0.664 | 0.396 | 0.503 | 0.844 | 0.793 | 0.499 | 0.501 | 0.629 | 0.756 | 0.399 | 0.502 | 1.65 | 0.873 | 0.934
7 | CTTIHYNYRCN [TP53_Y234_M237R] | 0.497 | 0.54 | 0.455 | 0.498 | 0.594 | 1.03 | 0.797 | 0.502 | 0.726 | 0.713 | 0.832 | 0.522 | 0.465 | 1.36 | 1.39 | 1.5
8 | DAASNYARGHF [TUBA3E_Y103_YF] | 0.47 | 0.514 | 0.403 | 0.398 | 0.502 | 0.584 | 0.503 | 0.41 | 0.537 | 0.526 | 0.604 | 0.394 | 0.465 | 0.458 | 0.844 | 0.688
9 | DAMQTYNGNDE [TSPAN7_Y131] | 0.494 | 0.576 | 0.531 | 0.55 | 0.637 | 1.11 | 1.01 | 0.508 | 0.653 | 0.837 | 1.03 | 0.685 | 0.585 | 0.71 | 0.613 | 0.654
10 | DCAAIYGNEPD [AKR1A1_Y50_E55D] | 1.09 | 0.726 | 0.672 | 1.02 | 0.668 | 1.64 | 1.35 | 0.638 | 0.978 | 0.957 | 1.25 | 1.65 | 0.585 | 0.982 | 0.813 | 1.11
11 | DDLEVYLKHLL [SACS_Y3477] | 0.58 | 0.503 | 0.653 | 0.482 | 0.505 | 0.97 | 1.03 | 0.479 | 0.61 | 0.697 | 0.822 | 0.558 | 0.409 | 0.544 | 0.605 | 0.752
12 | DDPRTYQKYGY [OAS1_Y362_R361T] | 0.492 | 0.611 | 0.41 | 0.43 | 0.458 | 0.76 | 0.74 | 0.446 | 0.572 | 0.555 | 0.635 | 0.549 | 0.421 | 0.598 | 0.833 | 0.866
13 | DDSSAYCSVDE [BCKDHA_Y345_R346C] | 0.58 | 0.505 | 0.521 | 0.55 | 0.621 | 1 | 1.32 | 0.544 | 0.712 | 0.692 | 0.978 | 0.535 | 0.505 | 1.21 | 0.727 | 1
14 | DEEPPDRGPFC [SASH1_Y551_Y551D] | 0.496 | 0.596 | 0.665 | 0.532 | 0.549 | 1.14 | 1.15 | 0.574 | 0.798 | 0.679 | 0.952 | 0.513 | 0.465 | 0.61 | 0.694 | 1.01
15 | DFFDLYGGEKF [PTPN11_Y66_YF] | 3.08 | 0.525 | 0.682 | 2.12 | 0.569 | 1 | 0.912 | 0.523 | 0.967 | 0.629 | 1.06 | 2.79 | 0.441 | 0.56 | 0.639 | 0.904
16 | DGMADCSDPSY [CDC5L_Y459_Y459C] | 0.543 | 0.595 | 0.52 | 0.492 | 0.607 | 1.18 | 1.12 | 0.465 | 0.755 | 0.754 | 1.06 | 0.425 | 0.412 | 0.615 | 0.629 | 1.22
17 | DKATEYIQYVR [MAX_Y70_M74V] | 0.552 | 0.582 | 0.43 | 0.535 | 0.519 | 0.976 | 0.983 | 0.506 | 0.582 | 0.507 | 0.763 | 0.493 | 0.425 | 0.517 | 1.27 | 0.94
